{
  "source": "paper doi:10.1101/2025.05.21.655409",
  "key": {"[1]": {"molecular_target": "Xenopus laevis histone H3 labelled with Oregon Green 488 at C110 (Xenopus laevis) (UniProt P84233)", "test": "fluorescence polarisation; fluorescence anisotropy; 5 nM OG488-labeled histone, ligase complex titrated; 20 mM Tris-HCl, 10 mM NaCl, 5% glycerol, 1 mM DTT; BSA-coated 96-well plates, 25 °C, 1.5-2.5 h"}, "[2]": {"molecular_target": "Xenopus laevis histone H4 V22C labelled with Oregon Green 488 (Xenopus laevis) (UniProt P62799)", "test": "fluorescence polarisation; fluorescence anisotropy; 5 nM OG488-labeled histone, ligase complex titrated; 20 mM Tris-HCl, 10 mM NaCl, 5% glycerol, 1 mM DTT; BSA-coated 96-well plates, 25 °C, 1.5-2.5 h"}},
  "data": [
    {"substance": "ASB9-ELOB/C-CUL5-RBX2 (ASB9-CRL), not neddylated (from UniProt Q96DX5 1-294; Q15370 1-118; Q15369 1-112; Q93034 1-780; Q9UBF6 1-113) (complex)", "values": [
      {"measurement": "Kd", "setting": "[1]", "result": 0.187, "unit": "µM"},
      {"measurement": "Kd", "setting": "[2]", "result": 0.0797, "unit": "µM"}
    ]},
    {"substance": "NEDD8-ASB9-ELOB/C-CUL5-RBX2 (NEDD8-ASB9-CRL) (from UniProt Q96DX5 1-294; Q15370 1-118; Q15369 1-112; Q93034 1-780; Q9UBF6 1-113; Q15843 1-76) (complex)", "values": [
      {"measurement": "Kd", "setting": "[1]", "result": 0.0782, "unit": "µM"},
      {"measurement": "Kd", "setting": "[2]", "result": 0.0484, "unit": "µM"}
    ]},
    {"substance": "CUL5-RBX2 (from UniProt Q93034 1-780; Q9UBF6 1-113) (complex)", "values": [
      {"measurement": "fold lower affinity than ASB9-CRL", "setting": "[1]", "result": 2, "unit": "fold"},
      {"measurement": "fold lower affinity than NEDD8-ASB9-CRL", "setting": "[1]", "result": 4, "unit": "fold"},
      {"measurement": "fold lower affinity than ASB9-CRL", "setting": "[2]", "result": 2, "unit": "fold"},
      {"measurement": "fold lower affinity than NEDD8-ASB9-CRL", "setting": "[2]", "result": 4, "unit": "fold"}
    ]}
  ]
}
